Six molecules from US20160279193A1 (NORWEGIAN UNIVERSITY OF SCIENCE AND TECHNOLOGY, published 2016) can be followed below.

In assay [1] the target is PCNA (endogenous, in human cells and their extracts) (human) (UniProt P12004). In words: co-IP with anti-PCNA antibody from formaldehyde-crosslinked HaCaT cell extract, gel, Orbitrap MS.
A further assay deals with MK2 (human) (UniProt P49137). The assay can be described thus: mock co-IP with anti-TOM20 antibody from crosslinked HaCaT cell extract, Orbitrap MS.
Sequence of MK2 (human) (P49137 whole entry): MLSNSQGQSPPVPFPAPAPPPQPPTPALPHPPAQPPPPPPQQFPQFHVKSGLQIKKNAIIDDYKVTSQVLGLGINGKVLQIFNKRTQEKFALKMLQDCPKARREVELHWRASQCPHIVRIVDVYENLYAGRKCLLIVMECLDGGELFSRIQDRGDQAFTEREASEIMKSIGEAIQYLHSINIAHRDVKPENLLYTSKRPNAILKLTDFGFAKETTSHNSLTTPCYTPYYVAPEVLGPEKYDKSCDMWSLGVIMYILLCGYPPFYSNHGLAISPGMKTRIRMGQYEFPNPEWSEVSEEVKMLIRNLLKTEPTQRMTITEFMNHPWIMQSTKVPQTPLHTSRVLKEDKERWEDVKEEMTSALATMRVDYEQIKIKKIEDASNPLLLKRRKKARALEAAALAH
The target in the next assay is TAO1 (human) (UniProt Q7L7X3). The assay is described as above.
Sequence of TAO1 (human) (Q7L7X3 whole entry): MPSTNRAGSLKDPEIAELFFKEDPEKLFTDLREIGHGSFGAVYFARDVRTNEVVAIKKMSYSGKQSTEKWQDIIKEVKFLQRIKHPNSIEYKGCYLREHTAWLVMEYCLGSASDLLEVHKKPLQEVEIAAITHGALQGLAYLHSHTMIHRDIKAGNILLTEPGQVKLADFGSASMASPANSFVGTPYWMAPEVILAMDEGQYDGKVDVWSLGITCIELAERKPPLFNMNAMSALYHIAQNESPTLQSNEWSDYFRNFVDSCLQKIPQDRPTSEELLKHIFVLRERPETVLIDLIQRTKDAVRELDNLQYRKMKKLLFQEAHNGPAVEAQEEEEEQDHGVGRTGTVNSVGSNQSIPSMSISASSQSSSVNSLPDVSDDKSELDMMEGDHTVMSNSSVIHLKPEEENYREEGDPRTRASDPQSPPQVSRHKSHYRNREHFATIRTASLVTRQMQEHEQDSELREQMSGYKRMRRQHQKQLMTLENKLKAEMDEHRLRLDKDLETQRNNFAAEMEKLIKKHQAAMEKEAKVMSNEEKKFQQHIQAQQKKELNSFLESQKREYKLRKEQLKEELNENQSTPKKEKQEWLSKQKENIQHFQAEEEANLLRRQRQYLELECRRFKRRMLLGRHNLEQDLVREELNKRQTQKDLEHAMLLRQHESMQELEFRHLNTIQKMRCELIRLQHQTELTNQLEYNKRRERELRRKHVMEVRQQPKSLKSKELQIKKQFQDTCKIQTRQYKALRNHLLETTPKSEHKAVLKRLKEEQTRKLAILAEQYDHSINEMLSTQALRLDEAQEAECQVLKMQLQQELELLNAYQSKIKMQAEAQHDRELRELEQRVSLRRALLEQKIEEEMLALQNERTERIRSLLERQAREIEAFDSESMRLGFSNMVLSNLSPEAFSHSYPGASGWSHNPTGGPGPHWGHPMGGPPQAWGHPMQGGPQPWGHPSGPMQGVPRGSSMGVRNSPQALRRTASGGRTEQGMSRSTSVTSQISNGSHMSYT
Another assay deals with PACT (human) (UniProt O75569). The description is as above.
Sequence of PACT (human) (O75569 whole entry): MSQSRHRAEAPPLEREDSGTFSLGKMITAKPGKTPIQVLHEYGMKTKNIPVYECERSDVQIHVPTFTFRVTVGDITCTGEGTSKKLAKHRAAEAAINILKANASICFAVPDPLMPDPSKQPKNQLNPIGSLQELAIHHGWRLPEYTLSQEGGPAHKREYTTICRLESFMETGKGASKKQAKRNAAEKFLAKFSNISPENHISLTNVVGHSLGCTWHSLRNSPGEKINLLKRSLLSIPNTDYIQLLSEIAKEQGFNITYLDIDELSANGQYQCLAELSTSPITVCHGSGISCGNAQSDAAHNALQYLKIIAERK
The target in assay [2] is T1, PCNA labeled with a fluorescent molecule (UniProt P12004 1-261, labeled with a fluorescent molecule (dye and site not stated)).
T1 construct: also called proliferating cell nuclear antigen
T1 sequence (P12004 whole entry): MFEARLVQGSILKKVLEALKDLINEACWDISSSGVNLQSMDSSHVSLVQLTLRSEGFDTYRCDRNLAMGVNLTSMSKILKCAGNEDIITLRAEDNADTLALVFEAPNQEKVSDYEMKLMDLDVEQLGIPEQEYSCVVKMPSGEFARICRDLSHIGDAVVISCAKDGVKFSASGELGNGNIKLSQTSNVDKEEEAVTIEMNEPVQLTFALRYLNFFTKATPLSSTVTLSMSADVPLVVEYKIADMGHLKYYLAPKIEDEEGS
In words: microscale thermophoresis, fluorescently labelled PCNA, peptide titrated. The protocol: Microscale thermophoresis (MST) was used to determine the dissociation constant for various APIM containing peptides.
PCNA was labeled with a fluorescent molecule. The concentration of PCNA was kept constant, whereas dilutions of each APIM containing peptide were prepared (1:1).
(In general: In MST a laser heats a spot of the sample, and binding alters the fluorescence response.)

Sequence of PCNA (endogenous, in human cells and their extracts) (human) (P12004 whole entry): as above

Turning to TOM20 (from UniProt Q15388 1-145), the Mascot-score (PCNA pull down) in assay [1] was determined as 32.5.
As to PACT (from UniProt O75569 1-313), in assay [1], the Mascot score (PCNA pull down) came out at 23 and the Sequest score (PCNA pull down) was 2.06.
In assay [1], “MK2 (from UniProt P49137 1-400) (enzyme)” yielded a Mascot score (PCNA pull down) of 27.6 and a Sequest score (PCNA pull down) of 6.33.
Turning to mock antibody specific for TOM20, the Sequest score (mock anti-TOM20 pull down) with MK2 (human) turned out to be 1.79; in the assay with TAO1 (human), 2.09; with PACT (human) it was 1.61. This molecule also came in with a Mascot score (mock anti-TOM20 pull down) with PACT (human) of 25.1.
In assay [1], “TAO1 (from UniProt Q7L7X3 1-1001) (enzyme)” registered a Mascot score (PCNA pull down) of 49.8 and a Sequest score (PCNA pull down) of 11.1.

B1: R11 (peptide)
peptide: RRRRRRRRRRR
notes: Cell penetrating peptide part alone, used as a control; also called R11 peptide; R11 (negative control)
As to B1, the binding result in assay [2] is listed as “no binding”.
